PMC9584954

Columns and labels:
[1] = biological target: Flag-Strep2-tagged Methanococcus aeolicus McrG (tag at the N-terminus of McrG, NG) (Methanococcus aeolicus); assay: native MS; intact protein mass spectrometry (12 T FT-ICR, nano-electrospray) of purified NG-tagged MCRaeo, 10 μM in 200 mM ammonium acetate pH 7.6
[2] = biological target: Methanococcus aeolicus McrA (untagged) (Methanococcus aeolicus); assay: as above
[3] = biological target: Methanococcus aeolicus McrB (untagged) (Methanococcus aeolicus); assay: as above
[4] = biological target: Flag-Strep2-tagged Methanococcus aeolicus McrG (tag at the N-terminus of McrG, NG) (Methanococcus aeolicus); assay: affinity purification with mass spectrometry; Flag-Strep2-tagged subunit expressed with its mcr operon (full or truncated) in M. maripaludis at 37 °C; lysate on Strep-Tactin Superflow Plus in 100 mM Tris-HCl pH 7.6, 150 mM NaCl, eluted with 2.5 mM desthiobiotin, then Q-Sepharose anion exchange; SDS-PAGE, bands identified by MALDI-TOF MS, relative abundance by LC-MS/MS
[5] = biological target: Flag-Strep2-tagged Methanococcus aeolicus McrA (tag at the C-terminus of McrA, CA) (Methanococcus aeolicus); assay: as above
[6] = biological target: Flag-Strep2-tagged Methanococcus aeolicus McrB (tag at the N-terminus of McrB, NB) (Methanococcus aeolicus); assay: as above

Substance: Flag-Strep2-tagged Methanococcus aeolicus McrG (tag at the N-terminus of McrG, NG) (natural protein)
- stoichiometry N [1]: 2

Substance: Methanococcus aeolicus McrA (untagged) (natural protein)
- stoichiometry N [2]: 2

Substance: Methanococcus aeolicus McrB (untagged) (natural protein)
- stoichiometry N [3]: 2

Substance: untagged host Methanococcus maripaludis McrG (natural protein)
- percent of the total McrG in the purified complex [4]: 30%
- percent of the total McrG in the purified complex [5]: 30%
- percent of the total McrG in the purified complex [6]: 30%
